Results on 8 molecules are retold here after patent US20240270821A1, “GIP/GLP1/GCG TRI-RECEPTOR AGONISTS AND USES THEREOF” (priority 2023, published 2024).

T1: human GIP receptor (human) (UniProt P48546)
T1 sequence (looked up): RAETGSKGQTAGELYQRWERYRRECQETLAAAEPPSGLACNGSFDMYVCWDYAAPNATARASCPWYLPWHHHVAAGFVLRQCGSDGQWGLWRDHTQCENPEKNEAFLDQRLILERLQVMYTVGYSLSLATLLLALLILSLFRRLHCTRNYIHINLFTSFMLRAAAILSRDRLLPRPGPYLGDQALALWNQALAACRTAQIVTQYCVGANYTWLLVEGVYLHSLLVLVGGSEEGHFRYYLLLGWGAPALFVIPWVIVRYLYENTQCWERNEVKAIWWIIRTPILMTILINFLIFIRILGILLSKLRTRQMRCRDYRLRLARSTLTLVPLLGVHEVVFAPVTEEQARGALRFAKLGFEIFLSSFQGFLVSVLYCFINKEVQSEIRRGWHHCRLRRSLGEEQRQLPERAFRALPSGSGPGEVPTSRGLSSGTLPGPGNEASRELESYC

B1: Example 354 (peptide)
chain: Y[Aib]QGT[αMePhe(2-F)]TSDYSKILDKIAQKAFIQYLIEGGPSSGEPPPSEG-NH2
modifications: not fully specified (residue 20)
B2: Example 355 (peptide)
chain: Y[Aib]QGT[αMePhe(2-F)]TSDYSKILDKIAQKAFIEYLIEGGPSSGAPPPSEG-NH2
modifications: not fully specified (residue 20)
B3: Example 356 (peptide)
chain: Y[Aib]QGT[αMePhe(2-F)]TSDYSKLLDKIAQKAFIEYLIEGGPSSGAPPPSGE-NH2
modifications: not fully specified (residue 20)
B4: Example 350 (peptide)
chain: Y[Aib]QGT[αMePhe(2-F)]TSD[Phe(4-CN)]SILLDKQAQKAFIEYLLEGGPSSGEPPPSAG-NH2
modifications: not fully specified (residue 20)
B5: Example 353 (peptide)
chain: Y[Aib]QGT[αMePhe(2-F)]TSD[Phe(4-CN)]SILLDKQAQKAFIQYLLEGGPSSGEPPPSEG-NH2
modifications: not fully specified (residue 20)
B6: Example 352 (peptide)
chain: Y[Aib]QGT[αMePhe(2-F)]TSD[Phe(4-CN)]SILLDKQAQKAFIEYLLEGGPSSGEPPPSEG-NH2
modifications: not fully specified (residue 20)
B7: Example 351 (peptide)
chain: Y[Aib]QGT[αMePhe(2-F)]TSDYSILLDAQAAKEFIEYLIEGGPSSGEPPPSEG-NH2
modifications: not fully specified (residue 20)
B8: Example 357 (peptide)
chain: Y[Aib]QGT[αMePhe(2-F)]TSDYSKLLDKIAQKAFIEYLIEGGPSSGAPPPEGE-NH2
modifications: not fully specified (residue 20)

Non-standard residues stand in square brackets, D forms with d. No end group written: not given here. Phe(4-CN) = N#Cc1ccc(C[C@H](N)C(=O)O)cc1; αMePhe(2-F) = C[C@](N)(Cc1ccccc1F)C(=O)O; Aib = CC(C)(N)C(=O)O

hGLP-1R, sequence (P43220 24-463): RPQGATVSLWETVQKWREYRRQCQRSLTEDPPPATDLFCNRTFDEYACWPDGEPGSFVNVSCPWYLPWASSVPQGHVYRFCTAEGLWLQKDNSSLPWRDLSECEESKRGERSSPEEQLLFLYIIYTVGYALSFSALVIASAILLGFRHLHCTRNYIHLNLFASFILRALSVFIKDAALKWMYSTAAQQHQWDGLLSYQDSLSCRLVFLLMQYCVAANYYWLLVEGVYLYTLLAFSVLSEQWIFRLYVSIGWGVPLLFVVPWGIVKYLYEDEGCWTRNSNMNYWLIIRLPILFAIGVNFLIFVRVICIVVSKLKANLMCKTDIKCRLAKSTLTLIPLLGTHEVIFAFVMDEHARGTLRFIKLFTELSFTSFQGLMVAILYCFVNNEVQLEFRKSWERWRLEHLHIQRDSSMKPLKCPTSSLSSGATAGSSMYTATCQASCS

The target in one experiment is human glucagon receptor (human) (UniProt P47871). The experiment in a line: cell-based or functional assay.
human glucagon receptor (human), sequence (P47871 26-477): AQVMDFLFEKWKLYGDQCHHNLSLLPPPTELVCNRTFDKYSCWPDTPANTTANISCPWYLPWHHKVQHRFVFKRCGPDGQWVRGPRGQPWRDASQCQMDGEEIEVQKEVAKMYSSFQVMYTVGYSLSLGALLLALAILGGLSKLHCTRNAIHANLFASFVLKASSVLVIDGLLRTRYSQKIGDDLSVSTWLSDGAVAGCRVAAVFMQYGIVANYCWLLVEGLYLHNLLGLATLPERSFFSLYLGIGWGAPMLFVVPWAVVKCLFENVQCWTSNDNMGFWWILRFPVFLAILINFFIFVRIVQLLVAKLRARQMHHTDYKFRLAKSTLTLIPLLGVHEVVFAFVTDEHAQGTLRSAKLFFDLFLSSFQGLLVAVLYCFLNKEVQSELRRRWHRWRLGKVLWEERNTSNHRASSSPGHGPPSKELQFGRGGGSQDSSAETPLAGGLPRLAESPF
As for B1, the Relative cAMP EC50 was 7.91 nM and the cAMP Rel EC50, nM (1% HSA) turned out to be 1440 nM.
B2 had a Relative cAMP EC50 of 5.87 nM and a cAMP Rel EC50, nM (1% HSA) of 3430 nM.
Take B3: the Relative cAMP EC50 stood at 4.76 nM and the cAMP Rel EC50, nM (1% HSA) is 2680 nM.
Take B4: the Relative cAMP EC50 was found to be 10.4 nM and the cAMP Rel EC50, nM (1% HSA) was 3760 nM.
On to B5, for which the Relative cAMP EC50 was 11 nM and the cAMP Rel EC50, nM (1% HSA) amounted to 3080 nM.
The molecule B6 yielded a Relative cAMP EC50 of 16.4 nM and a cAMP Rel EC50, nM (1% HSA) of 4020 nM.
With B7, the Relative cAMP EC50 was determined as 12.1 nM and the cAMP Rel EC50, nM (1% HSA) was determined as 2470 nM.
Regarding B8, the Relative cAMP EC50 was found to be 6.21 nM and the cAMP Rel EC50, nM (1% HSA) came to 1810 nM.

The target of another experiment is T1, human GIP receptor (human). The experiment in a line: cell-based or functional assay.
The molecule B1 gave a Relative cAMP EC50 of 0.134 nM and a cAMP Rel EC50, nM (1% HSA) of 23.8 nM.
The like results for B2 were, in that order, 0.0811 nM and 33.2 nM.
In the same order, the values of B3 are 0.0613 nM and 19.2 nM.
B4 had a Relative cAMP EC50 of 0.106 nM and a cAMP Rel EC50, nM (1% HSA) of 33.6 nM.
B5: the Relative cAMP EC50 was determined as 0.127 nM and the cAMP Rel EC50, nM (1% HSA) stood at 53.7 nM.
Molecule B6 registered a Relative cAMP EC50 of 0.245 nM and a cAMP Rel EC50, nM (1% HSA) of 34.1 nM.
Molecule B7 showed a Relative cAMP EC50 of 0.243 nM and a cAMP Rel EC50, nM (1% HSA) of 57.5 nM.
In the same order, the values of B8 are 0.077 nM and 42.9 nM.

Another experiment has as its target hGLP-1R (Homo sapiens, UniProt P43220). Put plainly: cell-based or functional assay.
Molecule B1 gave a Relative cAMP EC50 of 1.21 nM and a cAMP Rel EC50, nM (1% HSA) of 175 nM.
In turn, B2 registered a Relative cAMP EC50 of 1.01 nM and a cAMP Rel EC50, nM (1% HSA) of 351 nM.
With B3, the Relative cAMP EC50 amounted to 0.599 nM and the cAMP Rel EC50, nM (1% HSA) was determined as 206 nM.
The like results for B4 were, in that order, 0.776 nM and 360 nM.
B5: the Relative cAMP EC50 was 0.634 nM and the cAMP Rel EC50, nM (1% HSA) is 222 nM.
B6 displayed a Relative cAMP EC50 of 0.967 nM and a cAMP Rel EC50, nM (1% HSA) of 407 nM.
In the same order, the values of B7 are 0.679 nM and 272 nM.
In the same order, the values of B8 are 0.625 nM and 248 nM.
